According to publication PMC6937562:
Blank lines part the entries; values can stand above or below the substance they belong to.

Assays:
[1] = target: PspCN-anchored FH (on the HJEM6 SPR chip) (human | Streptococcus pneumoniae) (UniProt P08603); assay: SPR; homemade HJEM6 chip, FH (54 RU) captured by clicked sumo-Cys-PspCN-azide (18 RU); C3b flowed (1 μM to 3.9 nM); 1:1 steady-state model
[2] = target: C3b (human) (UniProt P01024); assay: SPR; homemade HJEM7 chip (50% OH, 25% COOH, 25% propargyl), 144 RU C3b amine-coupled; FH (2 μM to 3.9 nM) or FH 19–20 (10 μM to 3.9 nM) flowed; Biacore T200, 25 °C, HBS-P pH 7.4; 1:1 steady-state model
[3] = target: C3b (human) (UniProt P01024); assay: SPR; homemade HJEM7 chip, 143 RU C3b amine-coupled and 174 RU 3′-sialyllactose clicked on; FH (2 μM to 3.9 nM) or FH 19–20 (10 μM to 3.9 nM) flowed; Biacore T200, 25 °C, HBS-P pH 7.4; 1:1 steady-state model
[4] = target: C3b (human) (UniProt P01024); assay: AFM force-distance measurements; Cys-PspCN thiol-coupled to the SAM on the AFM probe tip, alone or with FH anchored to it; partner amine-coupled to the SAM on a gold wafer; PBS, laboratory at 22 °C; single (type 3) detachment events
[5] = target: C3b (human) (UniProt P01024); assay: SPR; C1 chip with immobilised C3b; cycles of a mixture of FB and FD, then C3, injected at 10 μl/min; Biacore T200, 25 °C, HBS-P pH 7.4 with 1 mM MgCl2

Substance: C3b (from UniProt P01024 23-667; P01024 749-1663) (natural protein)
- Kd [1]: 70 nM

- Kd [2]: 350 nM
- Kd [3]: 2600 nM
Substance: FH 19–20 (domain or fragment)

Substance: PspCN-anchored FH (on the AFM probe tip) (from UniProt P08603 19-1231) (complex)
- detachment force of single events [4]: 0.1 to 0.26 nN
- mean detachment force [4]: 0.17 nN

- percent of C3b molecules binding FB [5]: < 80%
Substance: factor B (natural protein)
